Broadly, the stoichiometry N is a count of units in the complex or per binding partner.

The text below walks through data of PMC9169680 (Science (New York, N.Y.), 2022).

In test [1] the target is Tetrahymena thermophila complex III protomer (Tt-CIII) (Tetrahymena thermophila (endogenous)). Put plainly: cryo-EM structure.
Test [2] has as its target Tt-CI (Tetrahymena thermophila complex I, in Tt-SC I+III2) (Tetrahymena thermophila, UniProt Q23KE4). The test is described as follows: cryo-EM structure. In kind it is binding. The settings on record: 2.6 Å nominal resolution; native bound cofactor of the peripheral arm.

Sequence of Tt-CI (Tetrahymena thermophila complex I, in Tt-SC I+III2) (Q23KE4 32-474): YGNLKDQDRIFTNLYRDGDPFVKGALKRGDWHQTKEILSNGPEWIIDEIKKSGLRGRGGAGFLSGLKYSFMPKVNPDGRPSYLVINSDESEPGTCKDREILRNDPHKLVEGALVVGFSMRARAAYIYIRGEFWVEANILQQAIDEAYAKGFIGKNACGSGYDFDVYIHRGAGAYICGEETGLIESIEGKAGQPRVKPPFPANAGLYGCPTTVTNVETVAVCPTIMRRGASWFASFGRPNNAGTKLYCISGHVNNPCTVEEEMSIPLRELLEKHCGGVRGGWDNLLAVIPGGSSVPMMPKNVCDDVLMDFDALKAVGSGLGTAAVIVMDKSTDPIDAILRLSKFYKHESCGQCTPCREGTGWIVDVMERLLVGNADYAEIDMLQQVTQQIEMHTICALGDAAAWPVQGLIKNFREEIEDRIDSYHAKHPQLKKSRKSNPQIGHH
Sequence of Tt-CI (Tetrahymena thermophila complex I, in Tt-SC I+III2) (Q951B1 1-442 partner): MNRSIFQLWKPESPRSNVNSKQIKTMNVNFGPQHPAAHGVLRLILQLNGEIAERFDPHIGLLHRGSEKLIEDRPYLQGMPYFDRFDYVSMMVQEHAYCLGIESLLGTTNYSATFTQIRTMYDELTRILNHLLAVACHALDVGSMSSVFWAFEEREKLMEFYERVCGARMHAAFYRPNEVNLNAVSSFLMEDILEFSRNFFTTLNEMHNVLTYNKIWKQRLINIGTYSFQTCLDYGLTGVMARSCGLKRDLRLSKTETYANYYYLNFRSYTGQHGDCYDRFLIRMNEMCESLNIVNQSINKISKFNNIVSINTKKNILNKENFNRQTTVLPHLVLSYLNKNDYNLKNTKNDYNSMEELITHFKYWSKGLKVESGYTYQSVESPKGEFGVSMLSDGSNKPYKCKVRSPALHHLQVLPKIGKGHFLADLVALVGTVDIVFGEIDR
Sequence of Tt-CI (Tetrahymena thermophila complex I, in Tt-SC I+III2) (Q951B4 1-162 partner): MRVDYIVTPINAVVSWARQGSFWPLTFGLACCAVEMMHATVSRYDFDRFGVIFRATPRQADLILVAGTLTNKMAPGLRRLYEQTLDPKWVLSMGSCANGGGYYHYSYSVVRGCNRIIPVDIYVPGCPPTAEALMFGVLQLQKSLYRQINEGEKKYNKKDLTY
Sequence of Tt-CI (Tetrahymena thermophila complex I, in Tt-SC I+III2) (Q950Z7 1-121 partner): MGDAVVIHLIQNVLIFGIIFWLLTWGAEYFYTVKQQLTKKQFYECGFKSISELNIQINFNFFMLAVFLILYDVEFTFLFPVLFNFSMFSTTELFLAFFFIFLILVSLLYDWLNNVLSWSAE

Consider “Tetrahymena thermophila complex III protomer (Tt-CIII)”, for which the stoichiometry N in test [1] came out at 2.

`Cc1cc2nc3c(=O)[nH]c(=O)nc-3n(C[C@H](O)[C@H](O)[C@H](O)COP(=O)(O)O)c2cc1C` [flavin mononucleotide]: in test [2], the cryo-EM structure entry is “relative locations of the flavin mononucleotide (FMN) co-factor and eight ironsulfur clusters”.
